Measured values: paper PMC3605159, “Twist1 Controls a Cell-Specification Switch Governing Cell Fate Decisions within the Cardiac Neural Crest” (PLoS Genetics, 2013)
Numbering of substitutions follows the chain as printed. Names may count otherwise.

B1: Twist1 (natural protein, UniProt P26687 1-206, looked up)
chain: MMQDVSSSPVSPADDSLSNSEEEPDRQQPASGKRGARKRRSSRRSAGGSAGPGGATGGGIGGGDEPGSPAQGKRGKKSAGGGGGGGAGGGGGGGGGSSSGGGSPQSYEELQTQRVMANVRERQRTQSLNEAFAALRKIIPTLPSDKLSKIQTLKLAARYIDFLYQVLQSDELDSKMASCSYVAHERLSYAFSVWRMEGAWSMSASH
B2: Twist1 S192P (natural protein, UniProt P26687 1-206, looked up)
chain: B1 chain with S192P

Target: T1, Sox10 (rat, UniProt O55170 1-466)
T1 sequence (looked up): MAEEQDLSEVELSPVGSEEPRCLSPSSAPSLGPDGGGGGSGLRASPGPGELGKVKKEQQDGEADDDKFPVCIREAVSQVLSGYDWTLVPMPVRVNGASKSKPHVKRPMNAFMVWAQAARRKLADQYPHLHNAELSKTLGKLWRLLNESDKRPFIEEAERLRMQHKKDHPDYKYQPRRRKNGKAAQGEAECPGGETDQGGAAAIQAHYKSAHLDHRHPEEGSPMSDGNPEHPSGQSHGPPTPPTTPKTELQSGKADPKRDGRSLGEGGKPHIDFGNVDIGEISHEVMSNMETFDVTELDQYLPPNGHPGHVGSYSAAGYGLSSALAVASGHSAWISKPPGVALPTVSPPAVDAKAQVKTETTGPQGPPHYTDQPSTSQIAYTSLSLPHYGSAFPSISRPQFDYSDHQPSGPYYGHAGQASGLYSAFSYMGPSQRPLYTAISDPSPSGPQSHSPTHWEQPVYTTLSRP
Experiment: cell-based or functional assay

| Binder | luciferase transactivation of the Phox2b promoter by Sox10 in HeLa cells with Twist1 co-expressed (Sox10 alone 48.9+/−2.2-fold) | luciferase transactivation of the Phox2b promoter by Sox10 in HeLa cells with Twist1 S192P co-expressed (Sox10 alone 48.9+/−2.2-fold) |
| --- | --- | --- |
| B1 | 26.3 fold |  |
| B2 |  | 49.3 fold |
